Key:
[1] = target: T1, GPIIb/IIIa (integrin αIIbβ3) (Homo sapiens, UniProt P05106+P08514); assay: ADP-induced platelet aggregation inhibition assay in platelet-rich plasma; type: cell-based; details: inhibitor added one minute prior to ADP (1 μM)
T1 construct: endogenous in cells; host or cells: platelets in fresh platelet-rich plasma
Description: Different concentrations of native CN, Vicrostatin (VN), or rCN conformer were incubated with platelet-rich plasma. Addition of ADP induces platelet aggregation; VN, rCN conformer, or native CN were added one minute prior to ADP.
The recombinant CN products were evaluated for biological activity by a platelet aggregation inhibition assay. According to this assay, CN binding to GPIIb/IIIa (integrin αIIbβ3) in an RGD dependent manner inhibits ADP induced platelet aggregation (Trikha, Rote et al. 1994). In this assay, potential inhibitors are added to fresh platelet-rich plasma, and after minute, ADP is added to a final concentration of 1 μM to induce aggregation. If inhibitor is present, functional aggregation will not occur. The IC50 is defined as the concentration at which 50% of the activity is inhibited, and is used as a measure of the potency of an inhibitor.

[2] = tested on: MDA-MB-435 breast carcinoma cells; assay: Inhibition of MDA-MB-435 cell adhesion to immobilized vitronectin (MTS readout); type: cell-based, human; details: 0-1000 nM, 30 min pretreatment, adhesion 1 hr at 25° C.
Description: (§1) Pretreated cells were allowed to adhere for 1 hr at 25° C., and after non-adherent cells were washed away, the number of adherent cells for each condition was estimated using the MTS cell viability assay.
(§2) Pretreated cells were allowed to adhere for 1 hr at 25° C., and after non-adherent cells were washed away, the number of adherent cells for each condition was estimated using the MTS cell viability assay. In the cell invasion assay, an invasion chamber consisting of cell culture inserts that fit into 24-well tissue culture plate has been utilized. The inserts contain an 8 μm-pore size polycarbonate membrane, over which a thin layer of ECMatrix™ was applied. The ECMatrix™ serves as an in vitro reconstituted basement membrane and is a solid gel of ECM proteins prepared from the Engelbreth Holm-Swarm (EHS) mouse tumor. The ECM layer occludes the membranes pores, blocking non-invasive cells to migrate through. […] At the 8 hr time point the cells that invaded through the pores into the lower chamber were measured. The numbers of invaded cells for each condition were approximated by quantitating the retrieved labeled DNA using a fluorescent plate reader. The results were calculated in % invasion, where the untreated control was considered as 100% invasion.

[3] = Liposome encapsulation, size and stability (BCA protein assay after liposome disruption); type: physicochemical
Description: Endotoxin-free VN containing liposomes (referred to as LVN) and endotoxin-free native CN containing liposomes (referred to as LCN) were prepared utilizing a probe sonication previously described (Fujii, Chang et al. 1997). Briefly, the lipids (disteroylphosphatidylcholine, cholesterol and polyethylene glycol derivatized lipid) were dissolved in a chloroform/methanol solution. Thin lipid films were created by pipetting aliquots of the lipid solution into round bottom glass tubes followed by solvent evaporation at 65° C. under a stream of nitrogen gas. The films were placed under vacuum for at least 24 hours to remove residual organic solvent. Liposomes formed following hydration of the lipid films with native CN or VN dissolved in 10 mM sodium phosphate, 9% sucrose, pH 7.2. The mixture was incubated at 65° C. for 5-10 minutes. Hydration was followed by probe sonication until the suspension was translucent. […]
The concentration of liposome entrapped CN/VN was determined by disruption of the liposomes with chloroform/methanol/water (10:40:50) followed by centrifugation at 14,000×g. The supernatant was analyzed for CN/VN concentration using BCA protein assay (Smith, Krohn et al. 1985). The encapsulation efficiency was assessed by BCA protein determination following disruption of the LrCN with a solution of H2O:methanol:chloroform.

[4] = tested on: MDA-MB-435 breast carcinoma cells; assay: Inhibition of MDA-MB-435 cell adhesion to immobilized fibronectin (MTS readout); type: cell-based, human; details: 0-1000 nM, 30 min pretreatment, adhesion 1 hr at 25° C.
Description: as §1, §2

B1: contortrostatin (protein)
chain: DAPANPCCDAATCKLTTGSQCADGLCCDQCKFMKEGTVCRRARGDDLDDYCNGISAGCPRNPFH
IC50 [1]: ~60 nM | inhibition of MDA-MB-435 cell adhesion to immobilized vitronectin (Vn) [2]: inhibited adhesion | protein in the encapsulation solution entrapped within the liposomes [3]: 80% | inhibition of MDA-MB-435 cell adhesion to immobilized fibronectin (Fn) [4]: inhibited adhesion

Source: US8685668B2, “Method of expressing proteins with disulfide bridges” (University of Southern California, priority 2005, dated 2014)
